Experimental data published in paper PMC9570423.

What was measured:
[1] = target: PagRBc, PagR homologue (ArsR/SmtB family transcription factor) of emetic B. cereus F4810/72, encoded on pCER270 (Bacillus cereus F4810/72 (emetic reference strain)); test: two-hybrid
[2] = tested on: PagRBc (Bacillus cereus F4810/72 (AH187), plasmid pCER270); test: EMSA
[3] = tested on: PagR1Bc (Bacillus cereus F4810/72 (AH187), plasmid pCER270); test: EMSA
[4] = tested on: PagRBa (PagR) (Bacillus anthracis Sterne, plasmid pXO1); test: EMSA

| Substance | fold of self-interaction (β-galactosidase activity) against the self-interaction of PagR1Bc [1] | Kd [2] | Kd [3] | Kd [4] |
| --- | --- | --- | --- | --- |
| PagRBc, PagR homologue (ArsR/SmtB family transcription factor) of emetic B. cereus F4810/72, encoded on pCER270 (natural protein) | 1.75 fold | – | – | – |
| cesP main promoter (cesPII), 523 bp | – | 25 nM | 150 nM | 25 nM |
